Data on one protein can be found in patent US8404644 (MEAT AND LIVESTOCK AUSTRALIA, dated 2013).

The data set concerns the molecule itself. As to the kind of experiment: gel filtration on Sephacryl 300 HR at pH 5.3 (self-association, homodimer). On the technique in general: Size exclusion chromatography separates by hydrodynamic size, large species first.

B1: bovine βB2 crystallin (other)
chain: ASDHQTQAGKPQPLNPKIIIFEQENFQGHSHELNGPCPNLKETGVEKAGSVLVQAGPWVGYEQANCKGEQFVFEKGEYPRWDSWTSSRRTDSLSSLRPIKVDSQEHKITLYENPNFTGKKMEVIDDDVPSFHAHGYQEKVSSVRVQSGTWVGYQYPGYRGLQYLLEKGDYKDSGDFGAPQPQVQSVRRIRDMQWHQRGAFHPSS
modifications: N-terminus acetylated (as extracted from bovine eye)
notes: Native intact protein purified from bovine eye lens; Wound Heal 1 = gel filtration at pH 5.3; Wound Heal 2 = 100 kDa retentate plus gel filtration, and also holds some βA3 crystallin; also called Crystallin βB2; Wound Heal 1
Consider B1, for which the binding result was “binds”.
